T1: SpRpn12 fragment (residues 1-250) (Schizosaccharomyces pombe, UniProt P50524 1-250)
T1 sequence (looked up): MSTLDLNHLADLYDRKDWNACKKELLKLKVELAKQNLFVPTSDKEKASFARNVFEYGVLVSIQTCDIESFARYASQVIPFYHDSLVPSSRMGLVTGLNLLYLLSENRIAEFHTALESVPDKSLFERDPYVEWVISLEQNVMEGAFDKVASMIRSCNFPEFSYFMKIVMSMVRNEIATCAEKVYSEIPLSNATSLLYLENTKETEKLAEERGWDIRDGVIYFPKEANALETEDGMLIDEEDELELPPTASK


What was measured:
monoubiquitin (bovine) = monoubiquitin (bovine) (bovine, UniProt P0CG53 1-76); assay: ITC
[1] = target: T1, SpRpn12 fragment (residues 1-250); assay: NMR titration

Row | Kd (monoubiquitin (bovine)) [µM] | binding result [1] | Binder
1 | 139 |  | Schizosaccharomyces pombe Rpn10, full-length (residues 1-243) (natural protein) MVLEATMILIDNSEWMINGDYIPTRFEAQKDTVHMIFNQKINDNPENMCGLMTIGDNSPQVLSTLTRDYGKFLSAMHDLPVRGNAKFGDGIQIAQLALKHRENKIQRQRIVAFVGSPIVEDEKNLIRLAKRMKKNNVAIDIIHIGELQNESALQHFIDAANSSDSCHLVSIPPSPQLLSDLVNQSPIGQGVVASQNQFEYGVDPNLDVELALALELSMAEERARQEVAAQKSSEETEDKKMQE
2 |  | binds | SpRpn10 VWA domain (residues 1-195) (domain or fragment, Schizosaccharomyces pombe, UniProt O94444 1-195, looked up) MVLEATMILIDNSEWMINGDYIPTRFEAQKDTVHMIFNQKINDNPENMCGLMTIGDNSPQVLSTLTRDYGKFLSAMHDLPVRGNAKFGDGIQIAQLALKHRENKIQRQRIVAFVGSPIVEDEKNLIRLAKRMKKNNVAIDIIHIGELQNESALQHFIDAANSSDSCHLVSIPPSPQLLSDLVNQSPIGQGVVASQ

Reference: paper PMC2962499 (The Journal of Biological Chemistry, 2010)
